For data set [1], the target named is T1, integrin alphaV beta3 (Homo sapiens, UniProt P06756;P06756;P05106 P06756:31-889,P06756:891-1048,P05106:27-788). As to the kind of experiment: microtiter plate, streptavidin-AP; Mg2+, Ca2+, Mn2+, pH 7.5, 37 C. The protocol: The affinity of individual RNAs and RNA pools for αᵥβ₃ was determined by titration of biotinylated RNA with a small quantity of immobilized integrin. Bound RNA was detected through the biotin moiety. Biotinylated RNA was prepared according to standard transcription protocols, but including a 5-fold molar excess of a 5′-biotin-modified GMP over GTP in the reaction mixture. Methods for synthesizing 5′-biotin-modified guanosine nucleotides are described in WO 98/30720 entitled “Bioconjugation of Oligonucleotides,” specifically incorporated herein by reference in its entirety. The modified nucleotide is incorporated at the 5′ end of the transcript in proportion to its representation in the guanosine pool. 96-well microtiter plates (Immulon 2, Dynatech Laboratories, Inc., Chantilly, Va.) were coated overnight at 4° C. with 100 μL purified αᵥβ₃ at a concentration of 0.25 μg/mL in 20 mM TrisHCl, pH 7.5, 150 mM NaCl, 1 mM MgCl₂, 2 mM CaCl₂, 0.1 mM MnCl₂. Coating concentrations were 0.8 μg/mL for αIIbβ₃ and 0.3 μg/mL for αᵥβ₅. Wells were blocked with 200 μL of a solution of 3% BSA in the same buffer (1 hour at room temperature) then rinsed 3 times with 200 μL binding buffer (50 mM TrisHCl, pH 7.5, 137 mM NaCl, 2.7 mM KCl, 1 mM MgCl₂, 2 mM CaCl₂, 0.1 mM MnCl₂, 0.1% BSA). Individual RNAs or RNA pools were denatured briefly at 93° C. in binding buffer without divalent cations or BSA, then serially diluted in the same buffer. 50 μL binding buffer containing 2×-concentrations of divalent cations and BSA were added to each well, followed by 50 μL RNA dilution. RNAs were allowed to incubate in the integrin-coated wells at 37° C. for 30-60 minutes. Unbound RNAs were removed by 3 rapid washes in binding buffer. To detect bound RNA, 100 μL of a 1:2500 dilution in binding buffer of streptavidin-alkaline phosphatase conjugate (Calbiochem) were incubated in each well for 30 minutes at room temperature, followed by three rapid washes, as above. 100 μL/well p-nitrophenyl phosphate (Sigma Chemical Co., St. Louis, Mo.) was added and incubated at room temperature for 30 minutes. Color development was monitored by absorbance at 405 nm.

Data set [2] deals with T1, integrin alphaV beta3. As to the kind of experiment: inhibition; inhibition of biotinylated vitronectin binding (10 nM), room temperature. The protocol: (§1) While the SELEX process identifies RNA sequences with high affinity for a particular target, the procedure used in this example was designed to bias for the recovery of ligand binding site inhibitors by the inclusion of a cRGD peptide competitor in the elution buffer. To test whether aptamer 17.16 could block the ligand binding site of αᵥβ₃ or αIIbβ₃, purified vitronectin and fibrinogen were biotinylated and incubated with one or both of the immobilized integrins in the presence or absence of varying concentrations of the aptamer or a non-binding control RNA. This was done as follows: purified integrin ligands, vitronectin and fibrinogen, were biotinylated according to (Smith et al. (1990) J. Biol. Chem. 265:12267-71). Briefly, proteins were dialyzed into 0.1 M NaHCO₃, 0.1 M NaCl. N-hydroxysuccinimido-LC-biotin (Pierce) was dissolved at 1 mg/mL in DMSO and added to the protein at a ratio of 0.1 mg biotin per 1 mg protein. The reaction was allowed to rotate at room temperature for 2 hours. Biotinylated proteins were dialyzed into phosphate-buffered saline and their concentrations determined by absorbance at 280 nm. […] Absorbance was read at 405 nm.

For data set [3], the target named is integrin alphaIIb beta3 on human platelets (Homo sapiens, UniProt P08514;P08514;P05106 P08514:32-887,P08514:891-1039,P05106:27-788). As to the kind of experiment: flow; EDTA-sensitive binding, same for resting and thrombin-activated platelets; Mg2+, Ca2+, room temperature.
Method: Human platelets were chosen for this purpose because of their ease of isolation and their high level of expression of integrin αIIbβ₃. Because αIIbβ₃ undergoes a conformational change upon platelet activation, binding of the aptamer to both resting and thrombin-activated platelets was tested. […] Briefly, RNA was transcribed in the presence of a 5-fold molar excess of the initiator nucleotide guanosine-5′-O-(2-thiodiphosphate) (Calciochem), followed by conjugation of the gel-purified RNA to 5-iodoacetamidofluorescein (Pierce, Rockford, Ill.). Platelet-rich plasma was prepared from freshly-drawn citrated human blood by centrifugation at 1000 rpm for 15 minutes in a table top centrifuge. For activated platelets, cells were incubated for 15 minutes at room temperature at 2×10⁷/mL in calcium- and magnesium-free Dulbecco's PBS with 2.5 U/mL thrombin and 5 mM Gly-Pro-Arg-Pro (GPRP) to inhibit platelet aggregation. […] Resting cells were diluted similarly, without exposure to thrombin or GPRP. The activation state of resting and thrombin-treated cells was monitored by staining with fluorophore-conjugated antibodies to CD61 (β₃ integrin subunit), which binds to all platelets, and to CD62 (P-selectin), a marker of platelet activation. […] The incubation mixtures were applied directly to a Becton Dickinson FACSCalibur flow cytometer to determine the mean fluorescence intensity of the sample. […]
Data set [4] deals with T2, integrin alphaIIb beta3 (UniProt P08514;P08514;P05106 P08514:32-887,P08514:891-1039,P05106:27-788). As to the kind of experiment: affinity identical to alphaV beta3; platelet Kd of ~10 nM stated equivalent to purified alphaIIb beta3. Conditions: tags: Enzyme Research Laboratories. The protocol:
(§2) The affinity of individual RNAs and RNA pools for αᵥβ₃ was determined by titration of biotinylated RNA with a small quantity of immobilized integrin. Bound RNA was detected through the biotin moiety. Biotinylated RNA was prepared according to standard transcription protocols, but including a 5-fold molar excess of a 5′-biotin-modified GMP over GTP in the reaction mixture. Methods for synthesizing 5′-biotin-modified guanosine nucleotides are described in WO 98/30720 entitled “Bioconjugation of Oligonucleotides,” specifically incorporated herein by reference in its entirety. The modified nucleotide is incorporated at the 5′ end of the transcript in proportion to its representation in the guanosine pool. 96-well microtiter plates (Immulon 2, Dynatech Laboratories, Inc., Chantilly, Va.) were coated overnight at 4° C. with 100 μL purified αᵥβ₃ at a concentration of 0.25 μg/mL in 20 mM TrisHCl, pH 7.5, 150 mM NaCl, 1 mM MgCl₂, 2 mM CaCl₂, 0.1 mM MnCl₂. Coating concentrations were 0.8 μg/mL for αIIbβ₃ and 0.3 μg/mL for αᵥβ₅. Wells were blocked with 200 μL of a solution of 3% BSA in the same buffer (1 hour at room temperature) then rinsed 3 times with 200 μL binding buffer (50 mM TrisHCl, pH 7.5, 137 mM NaCl, 2.7 mM KCl, 1 mM MgCl₂, 2 mM CaCl₂, 0.1 mM MnCl₂, 0.1% BSA). […] Color development was monitored by absorbance at 405 nm.

In data set [5] the target is T2, integrin alphaIIb beta3. As to the kind of experiment: inhibition; inhibition of biotinylated fibrinogen binding (6 nM), room temperature. The settings on record: tags: Enzyme Research Laboratories. The protocol: (§3) An estimate of the maximum absorbance value was determined for each ligand/integrin pair in the absence of competitor. The baseline absorbance value was determined by adding 5 mM EDTA to the incubation buffer.
as §1

Data set [6] has as its target T1, integrin alphaV beta3. Described as above. The protocol: as §3, §1
The target in data set [7] is integrin alphaV beta5 (Homo sapiens, UniProt P06756;P06756;P18084 P06756:31-889,P06756:891-1048,P18084:24-799). As to the kind of experiment: no binding observed to immobilized alphaV beta5. Conditions: tags: Chemicon International. As to the method:
as §2

The term Kd denotes a measure of binding affinity in units of concentration. What is called IC50 is the midpoint of a concentration-inhibition curve. Low values mean inhibition by little substance, high ones a need for much substance.

Read-outs that look alike come from different tables or passages of the source.

T1 sequence (P06756 31-889, chain 1 of 3): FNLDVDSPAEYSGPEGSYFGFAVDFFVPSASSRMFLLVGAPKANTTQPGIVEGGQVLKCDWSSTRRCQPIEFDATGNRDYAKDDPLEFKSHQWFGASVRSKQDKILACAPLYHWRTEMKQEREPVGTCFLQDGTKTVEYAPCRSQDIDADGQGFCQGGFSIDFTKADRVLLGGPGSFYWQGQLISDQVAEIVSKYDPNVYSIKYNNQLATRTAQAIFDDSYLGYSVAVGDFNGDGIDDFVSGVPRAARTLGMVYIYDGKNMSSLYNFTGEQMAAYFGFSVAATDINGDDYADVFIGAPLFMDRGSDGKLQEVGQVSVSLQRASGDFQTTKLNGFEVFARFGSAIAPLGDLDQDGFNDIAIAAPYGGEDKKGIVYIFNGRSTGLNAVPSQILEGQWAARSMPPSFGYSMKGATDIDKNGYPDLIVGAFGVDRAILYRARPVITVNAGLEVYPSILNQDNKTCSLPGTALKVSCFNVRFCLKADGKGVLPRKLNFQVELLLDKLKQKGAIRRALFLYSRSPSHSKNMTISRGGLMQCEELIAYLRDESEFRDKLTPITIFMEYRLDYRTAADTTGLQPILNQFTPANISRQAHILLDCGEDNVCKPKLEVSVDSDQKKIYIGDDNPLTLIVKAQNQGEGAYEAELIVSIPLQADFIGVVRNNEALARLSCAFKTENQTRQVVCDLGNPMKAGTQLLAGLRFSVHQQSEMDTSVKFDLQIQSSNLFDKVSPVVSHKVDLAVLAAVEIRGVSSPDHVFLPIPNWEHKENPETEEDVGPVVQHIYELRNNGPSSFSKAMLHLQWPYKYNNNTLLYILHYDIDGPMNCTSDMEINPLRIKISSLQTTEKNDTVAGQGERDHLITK
T1 sequence (P06756 891-1048, chain 2 of 3): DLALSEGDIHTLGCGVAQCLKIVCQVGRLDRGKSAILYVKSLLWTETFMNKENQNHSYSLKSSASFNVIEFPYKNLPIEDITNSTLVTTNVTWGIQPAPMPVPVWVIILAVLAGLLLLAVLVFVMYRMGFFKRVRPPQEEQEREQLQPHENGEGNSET
T1 sequence (P05106 27-788, chain 3 of 3): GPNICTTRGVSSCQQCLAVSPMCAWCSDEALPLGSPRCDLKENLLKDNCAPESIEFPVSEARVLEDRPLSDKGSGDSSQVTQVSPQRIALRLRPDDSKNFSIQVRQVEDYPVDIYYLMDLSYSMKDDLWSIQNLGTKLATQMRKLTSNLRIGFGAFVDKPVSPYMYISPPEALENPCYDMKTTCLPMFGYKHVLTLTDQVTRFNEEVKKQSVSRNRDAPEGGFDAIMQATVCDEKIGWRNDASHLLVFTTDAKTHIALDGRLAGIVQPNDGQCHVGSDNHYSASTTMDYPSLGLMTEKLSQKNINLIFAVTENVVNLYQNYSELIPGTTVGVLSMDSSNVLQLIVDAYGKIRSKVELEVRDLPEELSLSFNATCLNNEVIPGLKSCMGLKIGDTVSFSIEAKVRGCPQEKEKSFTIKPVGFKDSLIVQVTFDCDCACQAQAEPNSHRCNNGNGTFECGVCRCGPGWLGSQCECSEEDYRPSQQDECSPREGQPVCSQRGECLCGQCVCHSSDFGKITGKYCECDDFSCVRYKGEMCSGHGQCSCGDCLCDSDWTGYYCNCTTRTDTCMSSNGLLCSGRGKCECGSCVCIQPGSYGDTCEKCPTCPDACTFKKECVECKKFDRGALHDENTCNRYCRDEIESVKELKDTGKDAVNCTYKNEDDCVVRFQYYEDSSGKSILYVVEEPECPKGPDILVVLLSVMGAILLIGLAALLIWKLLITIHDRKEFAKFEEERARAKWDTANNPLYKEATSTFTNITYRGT
Chain of integrin alphaV beta5 (P06756 31-889, chain 1 of 3): as the sequence (P06756 31-889, chain 1 of 3) above
Chain of integrin alphaV beta5 (P06756 891-1048, chain 2 of 3): as the sequence (P06756 891-1048, chain 2 of 3) above
Chain of integrin alphaV beta5 (P18084 24-799, chain 3 of 3): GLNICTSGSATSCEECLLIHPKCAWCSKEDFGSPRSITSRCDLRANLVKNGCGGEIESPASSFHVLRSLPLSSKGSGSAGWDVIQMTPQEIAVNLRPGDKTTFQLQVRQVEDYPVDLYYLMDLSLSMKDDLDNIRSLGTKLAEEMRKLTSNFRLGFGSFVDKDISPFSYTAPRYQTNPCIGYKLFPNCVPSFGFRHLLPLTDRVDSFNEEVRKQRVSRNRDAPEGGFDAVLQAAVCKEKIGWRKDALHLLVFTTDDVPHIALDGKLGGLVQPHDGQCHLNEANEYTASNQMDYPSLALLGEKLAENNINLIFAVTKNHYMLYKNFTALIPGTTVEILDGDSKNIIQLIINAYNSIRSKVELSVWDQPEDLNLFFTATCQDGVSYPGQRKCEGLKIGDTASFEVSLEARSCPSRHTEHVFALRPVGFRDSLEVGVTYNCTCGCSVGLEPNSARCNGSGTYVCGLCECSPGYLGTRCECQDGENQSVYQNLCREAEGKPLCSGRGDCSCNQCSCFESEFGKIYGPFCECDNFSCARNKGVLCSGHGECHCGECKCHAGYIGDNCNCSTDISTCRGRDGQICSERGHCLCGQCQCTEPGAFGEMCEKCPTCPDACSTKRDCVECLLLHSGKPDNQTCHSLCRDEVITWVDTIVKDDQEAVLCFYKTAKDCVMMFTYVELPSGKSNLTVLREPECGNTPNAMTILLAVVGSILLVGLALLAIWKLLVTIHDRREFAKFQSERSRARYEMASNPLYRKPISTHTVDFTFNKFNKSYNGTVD

B1: 15.2 (ssRNA)
RNA: GGGAGACAAGAAUAAACGCUCAAUUCAACGUUGUCAAAGGGCUUAUAUGAGCGGAUUACCCUUCGACAGGAGGCUCACAACAGGC
modifications: 2'-F C and U
On to B1, for which binding in data set [1] (label: 5'-biotin) was put at a Kd of 6 nM.

B2: 15.14 (ssRNA)
RNA: GGGAGACAAGAAUAAACGCUCAAUUCAACAUUGUCCAAGGGCUUAUAUGAGCGGAUUACCCUUCGACAGGAGGCUCACAACAGGC
modifications: 2'-F C and U
B2 had a dissociation constant Kd in data set [1] (label: 5'-biotin) of 6 nM.

B3: 17.16 (ssRNA)
RNA: GGGAGACAAGAAUAAACGCUCAAUUCAACGCUGUGAAGGGCUUAUACGAGCGGAUUACCCUUCGACAGGAGGCUCACAACAGGC
modifications: 2'-F C and U
On to B3, for which the IC50 is 4.7 nM in data set [2], 6.5 nM in data set [5] and 9.5 nM in data set [6]. Besides, the Kd in data set [1] was 8 nM; in data set [3] it was about 10 nM; in data set [4], about 10 nM. Also, the binding result in data set [7] was “no binding”.

B4: 17.7 (ssRNA)
RNA: GGGAGACAAGAAUAAACGCUCAAUUCUACGCUGUGAAGGGCUUAUACGAGCGGAUUACCCUUCGACAGGAGGCUCACAACAGGC
modifications: 2'-F C and U
In data set [1] (label: 5'-biotin), B4 showed a dissociation constant (Kd) of 6 nM.

B5: 17.5 (ssRNA)
RNA: GGGAGACAAGAAUAAACGCUCAAUUCGACGCUGUGAAGGGCUUAUAUGAGCGGAUACACCCUUCGACAGGAGGCUCACAACAGGC
modifications: 2'-F C and U
B5: binding in data set [1] (label: 5'-biotin) was characterised by a dissociation constant (Kd) of 5 nM.

Source of the values: patent US20020150536, “Nucleic acid ligands to integrins” (GILEAD SCIENCES, INC., published 2002).
